Results: the supplement of paper PMC10065799, “High-throughput profiling of sequence recognition by tyrosine kinases and SH2 domains using bacterial peptide display” (eLife, 2023)

Experiments:
[1] = target: Grb2 SH2 (UniProt P62993); assay: SH2 binding enrichment of the phosphorylated peptide, bacterial display (enrichment ratio); higher = better substrate or ligand; peptides without Tyr show the background
[2] = target: c-Src SH2; assay: as above
[3] = target: SHP2-C SH2; assay: as above
[4] = target: MERTK (UniProt Q12866); assay: phosphorylation enrichment, bacterial display (enrichment ratio); higher = better substrate or ligand; peptides without Tyr show the background
[5] = target: Jak2 (UniProt O60674); assay: as above
[6] = target: FGFR3 (UniProt P22607); assay: as above
[7] = test system: AncSZ; assay: as above
[8] = target: Hck (UniProt P08631); assay: as above
[9] = target: Fes (UniProt P07332); assay: as above
[10] = target: EPHB2 (UniProt P29323); assay: as above
[11] = target: EPHB1 (UniProt P54762); assay: as above
[12] = test system: Fer (mouse); assay: as above
[13] = test system: c-Src; assay: as above
[14] = target: Fyn (UniProt P06241); assay: as above
[15] = target: FGFR1 (UniProt P11362); assay: as above
[16] = test system: c-Abl (mouse); assay: as above
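For SH2 binding enrichment of the phosphorylated peptide, bacterial display in this document: peptide library displayed on the E. coli surface as eCPX fusions, selected cells deep-sequenced, score is each peptide's frequency after selection divided by its frequency in the input.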
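For phosphorylation enrichment, bacterial display in this document: 11-residue human phosphosite peptides and single-mutation variants displayed on the E. coli surface, counted by deep sequencing, each peptide's frequency after selection divided by its frequency in the unselected input library; frequency after pTyr selection over input frequency; kinase dosed for 20-30% of maximal phosphorylation in three min.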

Fyn, sequence (P06241 whole entry, looked up): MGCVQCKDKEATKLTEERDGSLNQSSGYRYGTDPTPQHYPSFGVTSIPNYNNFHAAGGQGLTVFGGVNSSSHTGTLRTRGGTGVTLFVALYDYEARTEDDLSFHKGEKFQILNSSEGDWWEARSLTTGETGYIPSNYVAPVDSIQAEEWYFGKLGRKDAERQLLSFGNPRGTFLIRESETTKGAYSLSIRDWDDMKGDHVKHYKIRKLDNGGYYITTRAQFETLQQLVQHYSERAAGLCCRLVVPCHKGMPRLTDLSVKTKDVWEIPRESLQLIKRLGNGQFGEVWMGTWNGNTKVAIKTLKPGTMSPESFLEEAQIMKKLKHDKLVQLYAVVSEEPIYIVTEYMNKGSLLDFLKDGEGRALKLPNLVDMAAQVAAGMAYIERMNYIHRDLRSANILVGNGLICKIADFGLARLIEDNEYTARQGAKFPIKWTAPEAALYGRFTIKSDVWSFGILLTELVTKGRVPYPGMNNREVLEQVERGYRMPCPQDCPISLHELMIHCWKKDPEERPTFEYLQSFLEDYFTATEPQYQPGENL
Fes, sequence (P07332 whole entry, looked up): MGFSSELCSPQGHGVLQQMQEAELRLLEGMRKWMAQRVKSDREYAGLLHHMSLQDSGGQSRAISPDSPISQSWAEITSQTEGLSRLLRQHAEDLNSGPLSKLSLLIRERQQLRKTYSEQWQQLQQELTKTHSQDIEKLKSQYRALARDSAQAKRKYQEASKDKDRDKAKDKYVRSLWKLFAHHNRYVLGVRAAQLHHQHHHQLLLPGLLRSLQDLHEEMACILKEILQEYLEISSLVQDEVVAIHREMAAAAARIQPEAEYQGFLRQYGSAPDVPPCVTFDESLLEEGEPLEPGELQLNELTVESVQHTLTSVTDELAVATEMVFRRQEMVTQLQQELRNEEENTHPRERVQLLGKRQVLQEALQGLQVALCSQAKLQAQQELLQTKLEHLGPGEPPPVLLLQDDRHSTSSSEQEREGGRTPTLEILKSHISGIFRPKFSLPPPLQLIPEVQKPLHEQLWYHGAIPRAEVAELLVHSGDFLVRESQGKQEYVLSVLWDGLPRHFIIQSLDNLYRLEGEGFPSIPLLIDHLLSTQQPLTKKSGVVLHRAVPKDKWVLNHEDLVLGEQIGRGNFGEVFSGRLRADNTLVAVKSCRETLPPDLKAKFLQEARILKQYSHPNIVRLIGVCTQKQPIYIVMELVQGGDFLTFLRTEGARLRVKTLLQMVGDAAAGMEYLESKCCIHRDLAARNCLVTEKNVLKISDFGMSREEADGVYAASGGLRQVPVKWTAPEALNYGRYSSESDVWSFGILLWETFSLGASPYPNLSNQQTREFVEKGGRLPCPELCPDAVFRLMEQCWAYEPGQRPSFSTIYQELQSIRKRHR
FGFR1, sequence (P11362 whole entry, looked up): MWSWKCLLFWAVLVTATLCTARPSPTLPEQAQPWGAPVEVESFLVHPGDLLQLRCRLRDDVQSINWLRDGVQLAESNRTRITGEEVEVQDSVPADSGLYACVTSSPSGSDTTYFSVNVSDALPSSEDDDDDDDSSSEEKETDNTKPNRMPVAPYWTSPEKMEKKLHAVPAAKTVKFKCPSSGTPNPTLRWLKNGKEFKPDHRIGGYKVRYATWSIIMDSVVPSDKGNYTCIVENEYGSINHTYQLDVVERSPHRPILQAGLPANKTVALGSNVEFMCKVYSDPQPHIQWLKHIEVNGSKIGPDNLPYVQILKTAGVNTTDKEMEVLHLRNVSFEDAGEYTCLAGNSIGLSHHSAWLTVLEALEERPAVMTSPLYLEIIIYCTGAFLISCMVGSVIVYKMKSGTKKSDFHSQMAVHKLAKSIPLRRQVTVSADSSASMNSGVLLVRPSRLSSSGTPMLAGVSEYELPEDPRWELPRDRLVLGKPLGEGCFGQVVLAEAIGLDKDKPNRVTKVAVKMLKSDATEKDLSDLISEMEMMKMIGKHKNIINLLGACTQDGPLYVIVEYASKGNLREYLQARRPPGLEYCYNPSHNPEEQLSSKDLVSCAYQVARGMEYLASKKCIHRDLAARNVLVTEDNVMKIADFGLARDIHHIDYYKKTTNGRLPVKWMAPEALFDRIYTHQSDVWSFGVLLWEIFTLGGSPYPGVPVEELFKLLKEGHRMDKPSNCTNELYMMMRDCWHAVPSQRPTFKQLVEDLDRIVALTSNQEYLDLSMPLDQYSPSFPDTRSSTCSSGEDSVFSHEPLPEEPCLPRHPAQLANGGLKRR
Grb2 SH2, sequence (P62993 whole entry, looked up): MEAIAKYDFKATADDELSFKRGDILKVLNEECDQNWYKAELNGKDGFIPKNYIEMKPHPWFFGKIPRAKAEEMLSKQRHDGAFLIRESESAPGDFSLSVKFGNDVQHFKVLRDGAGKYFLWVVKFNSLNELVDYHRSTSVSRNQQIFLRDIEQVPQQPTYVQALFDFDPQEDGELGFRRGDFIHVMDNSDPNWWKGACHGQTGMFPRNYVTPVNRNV
MERTK, sequence (Q12866 whole entry, looked up): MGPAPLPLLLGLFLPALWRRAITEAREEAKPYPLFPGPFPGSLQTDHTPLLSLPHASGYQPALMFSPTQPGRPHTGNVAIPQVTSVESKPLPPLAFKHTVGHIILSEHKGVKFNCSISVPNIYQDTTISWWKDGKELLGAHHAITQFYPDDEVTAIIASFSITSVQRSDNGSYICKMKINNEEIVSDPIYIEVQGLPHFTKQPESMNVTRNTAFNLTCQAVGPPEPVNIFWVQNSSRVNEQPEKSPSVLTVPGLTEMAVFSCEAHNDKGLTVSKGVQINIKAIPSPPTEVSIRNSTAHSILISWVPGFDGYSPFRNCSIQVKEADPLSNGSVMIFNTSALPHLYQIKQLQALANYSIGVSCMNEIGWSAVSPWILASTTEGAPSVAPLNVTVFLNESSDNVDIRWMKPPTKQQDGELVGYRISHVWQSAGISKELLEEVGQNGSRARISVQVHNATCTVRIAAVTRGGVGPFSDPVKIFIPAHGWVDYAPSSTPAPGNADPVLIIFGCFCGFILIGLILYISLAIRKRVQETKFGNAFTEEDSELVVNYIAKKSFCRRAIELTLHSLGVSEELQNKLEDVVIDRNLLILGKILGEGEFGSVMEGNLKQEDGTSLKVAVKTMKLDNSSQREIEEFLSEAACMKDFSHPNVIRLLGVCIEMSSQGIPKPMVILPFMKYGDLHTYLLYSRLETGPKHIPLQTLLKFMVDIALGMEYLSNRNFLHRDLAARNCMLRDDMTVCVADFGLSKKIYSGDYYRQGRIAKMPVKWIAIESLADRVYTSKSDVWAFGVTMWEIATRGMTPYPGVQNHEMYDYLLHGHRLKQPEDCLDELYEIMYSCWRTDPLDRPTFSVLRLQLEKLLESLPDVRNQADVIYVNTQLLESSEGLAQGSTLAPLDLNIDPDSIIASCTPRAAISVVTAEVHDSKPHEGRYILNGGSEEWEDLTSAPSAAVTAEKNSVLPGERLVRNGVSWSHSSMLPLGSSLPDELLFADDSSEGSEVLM
EPHB2, sequence (P29323 whole entry, looked up): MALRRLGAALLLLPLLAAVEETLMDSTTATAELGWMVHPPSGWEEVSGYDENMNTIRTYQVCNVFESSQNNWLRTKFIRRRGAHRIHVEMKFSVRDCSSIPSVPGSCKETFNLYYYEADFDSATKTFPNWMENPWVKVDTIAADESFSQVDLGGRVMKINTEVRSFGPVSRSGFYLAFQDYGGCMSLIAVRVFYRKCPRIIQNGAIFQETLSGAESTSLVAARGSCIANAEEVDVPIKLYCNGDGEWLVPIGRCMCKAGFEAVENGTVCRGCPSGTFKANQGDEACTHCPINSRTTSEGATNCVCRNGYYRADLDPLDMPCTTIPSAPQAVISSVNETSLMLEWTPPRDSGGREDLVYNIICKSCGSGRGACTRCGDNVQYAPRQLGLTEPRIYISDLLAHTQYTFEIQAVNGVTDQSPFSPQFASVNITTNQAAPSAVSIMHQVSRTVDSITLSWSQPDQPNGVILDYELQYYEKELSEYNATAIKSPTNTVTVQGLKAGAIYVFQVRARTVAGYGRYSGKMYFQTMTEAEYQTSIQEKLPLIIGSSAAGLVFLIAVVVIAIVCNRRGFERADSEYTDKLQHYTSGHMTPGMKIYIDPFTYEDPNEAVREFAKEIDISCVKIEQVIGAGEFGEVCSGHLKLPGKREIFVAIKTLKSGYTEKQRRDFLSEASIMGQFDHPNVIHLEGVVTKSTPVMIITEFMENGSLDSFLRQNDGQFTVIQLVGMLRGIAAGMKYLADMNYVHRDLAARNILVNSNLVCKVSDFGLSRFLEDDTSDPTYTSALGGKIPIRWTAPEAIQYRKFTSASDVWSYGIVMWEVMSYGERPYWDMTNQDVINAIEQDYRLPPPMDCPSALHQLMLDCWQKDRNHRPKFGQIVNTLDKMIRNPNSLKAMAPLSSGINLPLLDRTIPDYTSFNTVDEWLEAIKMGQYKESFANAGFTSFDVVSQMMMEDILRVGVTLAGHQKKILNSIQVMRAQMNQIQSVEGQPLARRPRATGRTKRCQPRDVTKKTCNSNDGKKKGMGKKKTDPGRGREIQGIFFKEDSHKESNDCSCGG
Hck, sequence (P08631 whole entry, looked up): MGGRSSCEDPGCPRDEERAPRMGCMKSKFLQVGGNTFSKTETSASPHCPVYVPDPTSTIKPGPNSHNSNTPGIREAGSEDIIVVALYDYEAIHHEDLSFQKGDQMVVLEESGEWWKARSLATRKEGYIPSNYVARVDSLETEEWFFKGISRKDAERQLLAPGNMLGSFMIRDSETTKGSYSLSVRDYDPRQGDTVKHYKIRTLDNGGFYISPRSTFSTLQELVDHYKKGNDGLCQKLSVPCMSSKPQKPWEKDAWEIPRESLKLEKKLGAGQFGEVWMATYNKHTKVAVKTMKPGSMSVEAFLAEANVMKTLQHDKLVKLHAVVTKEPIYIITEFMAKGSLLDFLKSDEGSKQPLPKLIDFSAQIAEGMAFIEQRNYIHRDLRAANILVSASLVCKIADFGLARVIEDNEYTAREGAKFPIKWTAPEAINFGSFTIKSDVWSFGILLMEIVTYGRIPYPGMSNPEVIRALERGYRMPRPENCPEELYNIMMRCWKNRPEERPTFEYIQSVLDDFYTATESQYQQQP

Sequence | SH2 binding enrichment [1] | SH2 binding enrichment [2] | SH2 binding enrichment [3] | phosphorylation enrichment [4] | phosphorylation enrichment [5] | phosphorylation enrichment [6] | phosphorylation enrichment [7] | phosphorylation enrichment [8] | phosphorylation enrichment [9] | phosphorylation enrichment [10] | phosphorylation enrichment [11] | phosphorylation enrichment [12] | phosphorylation enrichment [13] | phosphorylation enrichment [14] | phosphorylation enrichment [15] | phosphorylation enrichment [16]
MSRDVYSIDYY [NTRK2_Y702_T704I] | 0.918 | 1.34 | 0.804 | 7.16 | 0.825 | 3.12 | 1.54 | 4 | 0.9 | 1.73 | 1.47 | 1.22 | 6.79 | 8.72 | 4.29 | 0.538
MSRYIYSTDYY [NTRK1_Y676_D674Y] | 0.906 | 1.53 | 1.82 | 12.3 | 2.09 | 6.27 | 2.16 | 5.21 | 1.41 | 11.4 | 8.88 | 1.89 | 7.15 | 6.8 | 8.47 | 0.879
MSSHHYDFKKF [ZNF445_Y428_YF] | 0.784 | 0.485 | 0.544 | 0.376 | 0.382 | 0.346 | 0.466 | 0.362 | 0.462 | 0.311 | 0.533 | 0.308 | 0.415 | 0.384 | 0.339 | 0.39
NACGLYHTMNG [GATA5_Y216_K218T] | 0.849 | 4.06 | 0.589 | 3.18 | 0.956 | 1.79 | 0.959 | 2.21 | 0.95 | 0.849 | 0.934 | 0.643 | 3.06 | 0.865 | 2.47 | 0.746
NAPNSYGRRPI [CDKN2A_Y44] | 0.726 | 0.392 | 0.799 | 0.713 | 0.76 | 0.81 | 1.23 | 0.757 | 0.952 | 1.21 | 0.581 | 1.2 | 0.75 | 0.678 | 0.692 | 0.885
NDKLCYEVSSP [CDH13_Y66_R65C] | 0.569 | 0.413 | 0.498 | 0.394 | 1 | 0.876 | 1.52 | 0.548 | 1.53 | 0.724 | 0.677 | 0.883 | 0.596 | 0.562 | 0.514 | 0.837
NFDLDYDSVQP [MYC_Y16_YF] | 0.872 | 0.595 | 0.898 | 0.458 | 1.06 | 0.608 | 2 | 0.575 | 0.974 | 0.923 | 1.28 | 0.591 | 0.814 | 0.572 | 0.573 | 0.68
NFFEFYVDDPP [GCHFR_Y48_YF] | 0.978 | 0.533 | 0.594 | 0.531 | 1.12 | 0.925 | 1.44 | 0.499 | 1.28 | 0.621 | 0.704 | 0.557 | 0.575 | 0.569 | 0.741 | 0.836
NFHRGYHLQVL [CD200R1L_Y138] | 0.963 | 0.54 | 0.827 | 0.351 | 0.54 | 0.606 | 0.755 | 0.375 | 0.835 | 0.475 | 0.483 | 0.478 | 0.353 | 0.5 | 0.453 | 0.787
NFRTTYVNANE [KCNH2_Y475] | 15.1 | 2.03 | 1.48 | 0.482 | 1.29 | 0.719 | 0.892 | 0.558 | 1.27 | 0.464 | 0.404 | 0.551 | 0.589 | 0.444 | 0.498 | 0.61
NGEDLYAGSTD [XRCC1_Y515_P514L] | 0.834 | 0.469 | 0.555 | 0.446 | 1.02 | 0.613 | 1.17 | 0.886 | 1.05 | 0.541 | 0.517 | 0.52 | 0.807 | 0.66 | 0.489 | 0.743
NGRQCYSCKGN [PLAUR_Y217] | 0.959 | 1.01 | 0.908 | 0.379 | 0.574 | 0.341 | 0.481 | 0.336 | 0.456 | 0.336 | 0.266 | 0.377 | 0.346 | 0.324 | 0.381 | 0.416
NIEPVYLNMLL [ATR_Y317] | 0.836 | 0.402 | 1.04 | 3.46 | 1.36 | 5.81 | 1.58 | 5.48 | 1.48 | 5.01 | 6.94 | 10.5 | 6.42 | 6.88 | 8.65 | 4.49
NKEPRYQEDPP [TJP2_Y479] | 1.43 | 0.78 | 0.822 | 0.508 | 0.832 | 0.823 | 0.852 | 0.546 | 0.999 | 0.607 | 0.525 | 0.59 | 0.461 | 0.693 | 0.625 | 0.48
NLNGKYFKPRA [ANGPTL3_Y417_N418Y_YF] | 1.21 | 0.961 | 1.16 | 0.389 | 0.543 | 0.383 | 0.646 | 0.367 | 0.56 | 0.365 | 0.538 | 0.297 | 0.43 | 0.335 | 0.363 | 0.469
NNHGNYIVRLG [ETFDH_Y172] | 0.889 | 0.781 | 0.991 | 0.416 | 0.702 | 0.595 | 0.619 | 0.481 | 0.723 | 0.563 | 0.548 | 0.438 | 0.547 | 0.5 | 0.456 | 0.667
NNIDFYKNTTN [FGFR2_Y657_K659N_YF] | 0.804 | 0.434 | 0.611 | 0.352 | 0.574 | 0.609 | 0.746 | 0.553 | 0.792 | 0.389 | 0.484 | 0.448 | 0.369 | 0.472 | 0.442 | 0.57

Sequence | SH2 binding enrichment [1] | SH2 binding enrichment [2] | SH2 binding enrichment [3] | phosphorylation enrichment [4] | phosphorylation enrichment [5] | phosphorylation enrichment [6] | phosphorylation enrichment [7] | phosphorylation enrichment [8] | phosphorylation enrichment [9] | phosphorylation enrichment [10] | phosphorylation enrichment [11] | phosphorylation enrichment [12] | phosphorylation enrichment [13] | phosphorylation enrichment [14] | phosphorylation enrichment [15] | phosphorylation enrichment [16]
NQILPYIKELV [PPP2R1B_Y341] | 1.01 | 0.55 | 0.684 | 0.456 | 1.08 | 0.774 | 1.01 | 0.52 | 1.14 | 0.611 | 0.509 | 0.528 | 0.477 | 0.43 | 0.579 | 0.72
NQKGKYFNVER [ANAPC4_Y469_R465Q] | 1.15 | 0.667 | 1.03 | 0.373 | 0.489 | 0.469 | 0.614 | 0.449 | 0.603 | 0.372 | 0.353 | 0.39 | 0.386 | 0.462 | 0.361 | 0.588
NRDNTYNPVSE [FGA_Y127_R129P] | 0.694 | 0.425 | 0.443 | 0.486 | 0.699 | 0.627 | 0.751 | 0.658 | 0.857 | 0.465 | 0.544 | 0.481 | 0.522 | 0.562 | 0.457 | 0.545
NSGFFYKTAEE [CCT6B_Y250] | 0.734 | 0.546 | 0.586 | 0.435 | 1.44 | 0.74 | 1.31 | 0.445 | 1.41 | 0.722 | 0.655 | 0.486 | 0.476 | 0.462 | 0.556 | 0.888
NTEGGYRCICA [CRELD1_Y328] | 0.97 | 0.465 | 0.489 | 0.484 | 0.869 | 0.636 | 0.976 | 0.538 | 1.02 | 0.644 | 0.496 | 0.498 | 0.465 | 0.511 | 0.668 | 0.947
NTFENYWPFFQ [GATM_Y103_K102N_YF] | 1.06 | 0.651 | 0.949 | 5.46 | 3.43 | 10.5 | 1.34 | 5.44 | 1.18 | 5.8 | 9.64 | 0.894 | 4.41 | 3.18 | 12.4 | 1.22
NTGDYYDLYGG [PTPN11_Y63] | 1.02 | 0.687 | 0.939 | 4.18 | 4.07 | 13.8 | 4.64 | 5.35 | 1.13 | 14.4 | 13 | 1.59 | 5 | 5.18 | 14.7 | 1.02
NTYEKYWPFYQ [GATM_Y103] | 1.14 | 1.24 | 0.762 | 5.5 | 1.93 | 1.89 | 1.41 | 4.39 | 2.3 | 8.15 | 6.55 | 1.92 | 5 | 5.72 | 2.76 | 1.17
NVADHYGVYKP [ATP6V0D2_Y271] | 0.917 | 0.597 | 0.647 | 0.356 | 0.517 | 0.451 | 0.571 | 3.71 | 0.645 | 0.391 | 0.401 | 0.424 | 4.89 | 5.55 | 0.461 | 0.587
NVFGNYNNQSS [HNRNPA1_Y318_D314V] | 0.78 | 0.397 | 0.508 | 0.289 | 0.489 | 0.546 | 0.475 | 0.424 | 0.537 | 0.467 | 0.421 | 0.448 | 0.293 | 0.315 | 0.399 | 0.352
NYCPGYNNFYN [USH2A_Y467_R464C] | 1.68 | 2.35 | 0.821 | 0.566 | 1.12 | 0.791 | 0.988 | 0.613 | 1.06 | 0.753 | 0.888 | 0.588 | 1.26 | 0.64 | 0.638 | 0.761
NYYDTYIKTCL [IQGAP2_Y1445] | 0.841 | 0.401 | 0.595 | 3.49 | 1.5 | 5.88 | 1.93 | 2.38 | 1.25 | 5.75 | 5.9 | 1.1 | 2.34 | 3.03 | 7.55 | 0.928
PAIYTYDEYKK [COL8A2_Y648_T645I] | 0.778 | 2.29 | 0.513 | 13.5 | 1.27 | 2.2 | 1.93 | 8.13 | 1.95 | 3.29 | 3.61 | 9.34 | 9.14 | 18.6 | 2.04 | 1.04
PAKPRYRARQR [KCNJ11_Y26_E23K] | 0.654 | 0.418 | 0.399 | 0.935 | 0.955 | 0.642 | 1.08 | 0.819 | 0.877 | 1.06 | 0.774 | 0.767 | 0.763 | 0.813 | 0.671 | 0.818
PARLEYCENEK [IRS1_Y46_Y47C] | 0.909 | 1.26 | 1.21 | 0.762 | 1.76 | 1.16 | 1.75 | 1.04 | 1.74 | 0.823 | 0.947 | 0.816 | 1.05 | 1.12 | 0.809 | 1.08
PCPANYFAFKI [FAM3D_Y65] | 1.03 | 0.594 | 0.69 | 12.1 | 8.15 | 7.65 | 2.11 | 1.34 | 2.29 | 3.72 | 6.38 | 1.12 | 4.44 | 1.14 | 9.03 | 7.14
